{
  "source": "patent US20090053180A1",
  "about": "“Tandem cardiac pacemaker system” (priority 2005, published 2009)",
  "key": {"[1]": {"system": "newborn rat ventricular myocytes", "assay": "Whole-cell voltage clamp of expressed HCN current in newborn rat ventricular myocytes", "assay_type": "cell-based", "conditions": "for V1/2 / s: fit of average data", "method": "Adult rats were anesthetized with ketamine-xylazine before cardiectomy, and neonatal rats decapitated. Newborn rat ventricular myocyte cultures were prepared as previously described (Protas and Robinson, 1999). Briefly, 1-2-day-old Wistar rats were euthanized, hearts were quickly removed and ventricles were dissociated using a standard trypsinization procedure. Myocytes were harvested, preplated to reduce fibroblast proliferation, cultured initially in serum-containing medium (except when being transfected with plasmids as described below), and then incubated in serum free medium (SFM) at 37° C., 5% CO2 after 24 h. Action potential studies were conducted on 4-day-old monolayer cultures plated directly onto fibronectin-coated 9×22 mm glass coverslips. For voltage clamp experiments, 4-6 day old monolayer cultures were resuspended by brief (2-3 min) exposure to 0.25% trypsin, then replated onto fibronectin-coated coverslips and studied within 2-8 h.\nAdenoviral infection of the newborn ventricular myocytes was performed on cell monolayer cultures 4 days after initial plating. Cells were exposed to a virus-containing mix (m.o.i. 20, in 250 μl of culture medium) for 2 h, rinsed twice and incubated in SFM at 37° C., 5% CO2 for 24-48 hours prior to the cells being resuspended as described above for electrophysiological study.\nThe whole-cell patch clamp technique was employed to record mHCN2 current from cultured myocytes. Experiments were carried out on cells superfused at 35° C. The external solution contained (mM): NaCl, 140; NaOH, 2.3; MgCl2, 1; KCl, 10; CaCl2, 1; HEPES, 5; glucose, 10; pH 7.4. MnCl2 (2 mM) and BaCl2 (4 mM) were added to block other currents. The pipette solution contained (mM): aspartic acid, 130; KOH, 146; NaCl, 10; CaCl2, 2; EGTA-KOH, 5; Mg-ATP, 2; HEPES-KOH, 10; pH 7.2.\nTo measure the HCN activation curve, a standard two-step protocol was employed. Hyperpolarizing steps from −25 to −135 mV for mHCN2 and from −5 or −15 to −135 mV for mE324A were applied from a holding potential of −10 mV, followed by a tail current step (to −125 or −135 mV). The duration of test steps was longer at less hyperpolarized potential for mHCN2 channels, to more closely approach steady-state activation at all voltages. The normalized plot of tail current versus test voltage was fit with a Boltzmann function and then the voltage of half maximum activation (V1/2) and slope factor(s) were defined from the fitting. Activation kinetics were determined from the same traces, while deactivation kinetics were determined from traces recorded at each test potential after achieving full activation by a prepulse to −135 mV. Time constants were then obtained by fitting the early time course of activation or deactivation current traces with a monoexponential function; the initial delay and any late slow activation or deactivation phase were ignored (Qu et al., 2001; Altomare et al., 2001). Current densities are expressed as the value of the time-dependent component of current amplitude, measured at the end of the test potential and normalized to cell membrane capacitance. Records were not corrected for liquid junction potential, which was previously determined to be 9.8 mV under these conditions (Qu et al., 2001)."}, "[2]": {"system": "Xenopus oocytes", "assay": "Two-microelectrode voltage clamp of expressed HCN current in Xenopus oocytes", "assay_type": "cell-based, Xenopus laevis"}, "[3]": {"system": "dogs with complete AV block", "assay": "Tandem biological and electronic pacemakers in dogs with complete AV block (injection into left bundle branch)", "assay_type": "in vivo, dog", "method": "Adult mongrel dogs weighing 22-25 kg were anesthetized with propofol 6 mg/kg IV and inhalational isoflurane (1.5%-2.5%). Using a steerable catheter, saline (n=5), AdmHCN2 (n=6) or AdmE324A (n=4) were injected into the left bundle branch (LBB) as described previously (Plotnikov et al., 2004). In 2 additional dogs AdmE324A was injected into the LV septal myocardium as an internal control. Complete AV block was induced via radiofrequency ablation and each site of injection was paced via catheter electrode to distinguish electrocardiographically the origin of the idioventricular rhythm during the follow up period.\nAn electronic pacemaker (Discovery II, Flextend lead; Guidant, Indianapolis, Ind.) was implanted and set at VVI 45 bpm. ECG, 24 hour Holter monitoring, pacemaker log record check, and overdrive pacing at 80 bpm were performed daily for 14 days. To evaluate beta-adrenergic responsiveness, on day 14, epinephrine (1.0, 1.5 and 2.0 μg/kg/min for up to 10 min each) was infused to an endpoint of a 50% increase in idioventricular rate or ventricular arrhythmia (single ventricular premature beats having a morphology other than that of the dominant idioventricular rhythm or ventricular tachycardia), whichever occurred first. If none of the above responses was observed within 10 min after onset of the maximal dose of 2 μg/kg/min, the infusion was terminated.\nData are presented as means±SEM. […] One-way ANOVA was used to evaluate the effect of an implanted construct on electrophysiological parameters. Subsequent analysis was performed using Bonferroni's test where equal variances were assumed and the Games-Howell test where variances were unequal. A two-way contingency table analysis was conducted to evaluate whether epinephrine had different effects across three groups. Data were analyzed using SPSS for Windows software (SPSS, Inc.). P<0.05 was considered to be significant.\nComplete AV block was induced via radiofrequency ablation, and electronic pacemakers were implanted into the right ventricular apical endocardium and set a VV1 45 bpm. ECG and 24-h monitoring were performed daily for 14 days. Beta-adrenergic responsiveness was also evaluated as described above.\nEscape time was evaluated daily by performing three 30-s periods of ventricular overdrive pacing at 80 bpm followed by an abrupt cessation of pacing. The average time between the final electronically paced beat and the first intrinsic beat was then determined. […] There was a different result with regard to basal heart rates throughout the 14-day period, however."}, "[4]": {"system": "cell-free patches from Xenopus oocytes", "conditions": "cited from earlier work"}, "[5]": {"conditions": "10 μM cAMP in the pipette solution"}},
  "note": "“Also recorded” adds a separate entry of the source.",
  "data": [
    {"molecule": "mE324A: mHCN2 channel with E324A point mutation, expressed from cRNA or adenoviral construct AdmE324A (protein, UniProt O88703 1-863, looked up, variant E324A) Potassium/sodium …: MDARGGGGRPGDSPGTTPAPGPPPPPPPPAPPQPQPPPAPPPNPTTPSHPESADEPGPRARLCSRDSACTPGAAKGGANGECGRGEPQCSPEGPARGPKVSFSCRGAASGPSAAEEAGSEEAGPAGEPRGSQASFLQRQFGALLQPGVNKFSLRMFGSQKAVEREQERVKSAGAWIIHPYSDFRFYWDFTMLLFMVGNLIIIPVGITFFKDETTAPWIVFNVVSDTFFLMDLVLNFRTGIVIEDNTEIILDPEKIKKKYLRTWFVVDFVSSIPVDYIFLIVEKGIDSEVYKTARALRIVRFTKILSLLRLLRLSRLIRYIHQWAEIFHMTYDLASAVMRICNLISMMLLLCHWDGCLQFLVPMLQDFPSDCWVSINNMVNHSWSELYSFALFKAMSHMLCIGYGRQAPESMTDIWLTMLSMIVGATCYAMFIGHATALIQSLDSSRRQYQEKYKQVEQYMSFHKLPADFRQKIHDYYEHRYQGKMFDEDSILGELNGPLREEIVNFNCRKLVASMPLFANADPNFVTAMLTKLKFEVFQPGDYIIREGTIGKKMYFIQHGVVSVLTKGNKEMKLSDGSYFGEICLLTRGRRTASVRADTYCRLYSLSVDNFNEVLEEYPMMRRAFETVAIDRLDRIGKKNSILLHKVQHDLSSGVFNNQENAIIQEIVKYDREMVQQAELGQRVGLFPPPPPPQVTSAIATLQQAVAMSFCPQVARPLVGPLALGSPRLVRRAPPGPLPPAASPGPPAASPPAAPSSPRAPRTSPYGVPGSPATRVGPALPARRLSRASRPLSASQPSLPHGVPAPSPAASARPASSSTPRLGPAPTARTAAPSPDRRDSASPGAASGLDPLDSARSRLSSNL", "values": [
      {"measurement": "activation kinetics compared with mHCN2", "setting": "[1]", "value": "faster"},
      {"measurement": "activation threshold compared with mHCN2", "setting": "[1]", "value": "less negative"},
      {"measurement": "shift of V1/2 by cAMP", "setting": "[1]; [5]", "value": 5.6, "unit": "mV"},
      {"measurement": "percentage of myocytes expressing current", "setting": "[1]; 6 matched cell cultures", "value": 36.6, "unit": "%"},
      {"measurement": "current density, times smaller than that of mHCN2", "setting": "[1]; at −135 mV", "value": "about 2.5 times"},
      {"measurement": "V1/2", "setting": "[1]; [5]", "value": "−40.7", "unit": "mV"},
      {"measurement": "s", "setting": "[1]; [5]", "value": 8.7, "unit": "mV"},
      {"measurement": "V1/2", "setting": "[1]; absence of cAMP", "value": "−46.3", "unit": "mV"},
      {"measurement": "s", "setting": "[1]; absence of cAMP", "value": 9.1, "unit": "mV"},
      {"measurement": "slope factor s", "setting": "[1]; mean of individual Boltzmann fits", "value": "9.6±0.4", "unit": "mV"},
      {"measurement": "V1/2 (voltage of half maximum activation)", "setting": "[1]; mean of individual Boltzmann fits, adenoviral infection", "value": "−46.9±1.2", "unit": "mV"},
      {"measurement": "current density", "setting": "[1]; measured at −135 mV", "value": "21.0±3.5", "unit": "pA/pF"},
      {"measurement": "effect of Cs+ on inward current", "setting": "[2]; 5 mM Cs+", "value": "blocked; also recorded: large inhibition"},
      {"measurement": "reversal potential", "setting": "[2]; fully activated current/voltage relation", "value": "~−40", "unit": "mV"},
      {"measurement": "beats triggered by the electronic pacemaker, of all beats", "setting": "[3]; 14 days, electronic pacemaker set at VVI 45 bpm", "value": "36±7", "unit": "%"},
      {"measurement": "arrhythmias during epinephrine infusion", "setting": "[3]; day 14", "value": "no arrhythmias were seen"},
      {"measurement": "mean basal heart rate compared with saline group", "setting": "[3]; days 1-7 and 8-14", "value": "significantly faster"},
      {"measurement": "animals that achieved a 50% increase in rate at the lowest epinephrine dose", "setting": "[3]; epinephrine 1 μg/kg/min, day 14", "value": 100, "unit": "%"},
      {"measurement": "increase in heart rate", "setting": "[3]; lowest dose of epinephrine", "value": "> 50", "unit": "%"},
      {"measurement": "control rate prior to epinephrine", "setting": "[3]; representative animal, day 14", "value": 52, "unit": "bpm"},
      {"measurement": "rate with epinephrine", "setting": "[3]; representative animal, epinephrine 1 μg/kg/min", "value": 81, "unit": "bpm"}
    ]},
    {"molecule": "HCN1: HCN1 isoform of hyperpolarization-activated, cyclic nucleotide-gated ion channel (protein, UniProt O60741 1-890, looked up) Potassium/sodium …: MEGGGKPNSSSNSRDDGNSVFPAKASATGAGPAAAEKRLGTPPGGGGAGAKEHGNSVCFKVDGGGGGGGGGGGGEEPAGGFEDAEGPRRQYGFMQRQFTSMLQPGVNKFSLRMFGSQKAVEKEQERVKTAGFWIIHPYSDFRFYWDLIMLIMMVGNLVIIPVGITFFTEQTTTPWIIFNVASDTVFLLDLIMNFRTGTVNEDSSEIILDPKVIKMNYLKSWFVVDFISSIPVDYIFLIVEKGMDSEVYKTARALRIVRFTKILSLLRLLRLSRLIRYIHQWEEIFHMTYDLASAVVRIFNLIGMMLLLCHWDGCLQFLVPLLQDFPPDCWVSLNEMVNDSWGKQYSYALFKAMSHMLCIGYGAQAPVSMSDLWITMLSMIVGATCYAMFVGHATALIQSLDSSRRQYQEKYKQVEQYMSFHKLPADMRQKIHDYYEHRYQGKIFDEENILNELNDPLREEIVNFNCRKLVATMPLFANADPNFVTAMLSKLRFEVFQPGDYIIREGAVGKKMYFIQHGVAGVITKSSKEMKLTDGSYFGEICLLTKGRRTASVRADTYCRLYSLSVDNFNEVLEEYPMMRRAFETVAIDRLDRIGKKNSILLQKFQKDLNTGVFNNQENEILKQIVKHDREMVQAIAPINYPQMTTLNSTSSTTTPTSRMRTQSPPVYTATSLSHSNLHSPSPSTQTPQPSAILSPCSYTTAVCSPPVQSPLAARTFHYASPTASQLSLMQQQPQQQVQQSQPPQTQPQQPSPQPQTPGSSTPKNEVHKSTQALHNTNLTREVRPLSASQPSLPHEVSTLISRPHPTVGESLASIPQPVTAVPGTGLQAGGRSTVPQRVTLFRQMSSGAIPPNRGVPPAPPPPAAALPRESSSVLNTDPDAEKPRFASNL", "values": [
      {"measurement": "shift of activation curve to more positive potentials by cAMP", "setting": "[4]", "value": 4, "unit": "mV"}
    ]}
  ]
}
